Source: article PMC2807034, “An Autoinhibitory Tyrosine Motif in the Cell-Cycle-Regulated Nek7 Kinase Is Released through Binding of Nek9” (Molecular Cell, 2009)

Key:
Assay in all cases: pull-down; GST-fusion protein (20 pmol) immobilised on glutathione Sepharose 4B beads; incubated with 1 ml of 3.5 uM Nek7 protein for 2 hr; PD buffer (20 mM HEPES pH 7.5, 150 mM NaCl, 0.05% Tween 20); three 30 min washes at 4°C; anti-His6 immunoblot
Conditions in all cases: both partners purified
[1] = molecular target: T1, Nek7, wild-type, full-length human protein with C-terminal His6 tag (human, UniProt Q8TDX7 1-302)
T1 construct: Nek7 (NIMA-related kinase 7), human, full-length (35 kDa), cloned into pET30; The His6 tag is uncleavable; also called Nek7-WT; WT; source: E. coli Codonplus RPIL, coexpressed with lambda phosphatase, purified (HisTRAP, then dialysis or gel filtration); not shown: His6, C-terminal, kept
T1 sequence (Q8TDX7 whole entry): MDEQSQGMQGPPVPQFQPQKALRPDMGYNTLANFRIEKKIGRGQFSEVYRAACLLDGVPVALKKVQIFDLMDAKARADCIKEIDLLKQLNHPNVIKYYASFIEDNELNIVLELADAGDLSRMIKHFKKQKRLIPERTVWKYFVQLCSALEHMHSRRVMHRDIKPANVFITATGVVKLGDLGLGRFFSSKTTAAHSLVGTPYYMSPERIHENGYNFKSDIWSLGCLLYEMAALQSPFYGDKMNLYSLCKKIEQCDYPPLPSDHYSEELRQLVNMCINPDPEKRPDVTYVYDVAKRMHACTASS

[2] = molecular target: T2, Nek7-Δ20, N-terminal truncation of Nek7 starting at residue 20 (human, UniProt Q8TDX7 20-302)
T2 construct: Nek7, human, truncation starting at residue 20; source: bacterially expressed and purified
T2 sequence (Q8TDX7 20-302, stated change not applied): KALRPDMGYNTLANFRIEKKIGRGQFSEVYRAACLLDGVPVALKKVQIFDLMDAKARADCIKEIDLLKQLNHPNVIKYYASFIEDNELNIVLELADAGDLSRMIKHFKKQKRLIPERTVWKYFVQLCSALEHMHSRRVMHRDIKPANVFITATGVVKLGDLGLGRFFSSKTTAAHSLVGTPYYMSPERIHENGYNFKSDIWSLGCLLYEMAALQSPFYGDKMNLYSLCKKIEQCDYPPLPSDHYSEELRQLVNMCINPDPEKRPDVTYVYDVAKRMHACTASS

[3] = molecular target: T3, Nek7-Δ30, N-terminal truncation of Nek7 starting at residue 30 (human, UniProt Q8TDX7 30-302)
T3 construct: Nek7, human, truncation starting at residue 30; source: bacterially expressed and purified
T3 sequence (Q8TDX7 30-302, stated change not applied): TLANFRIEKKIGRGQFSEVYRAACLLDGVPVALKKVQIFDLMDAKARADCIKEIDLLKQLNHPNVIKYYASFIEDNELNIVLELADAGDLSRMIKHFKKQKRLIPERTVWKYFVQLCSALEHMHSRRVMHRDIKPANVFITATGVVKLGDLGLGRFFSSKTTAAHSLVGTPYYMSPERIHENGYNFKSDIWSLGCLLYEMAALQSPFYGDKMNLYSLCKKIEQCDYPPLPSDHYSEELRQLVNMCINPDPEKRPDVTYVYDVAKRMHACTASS

[4] = molecular target: T4, Nek7-N33D (human, UniProt Q8TDX7 1-302, N33D)
T4 construct: Nek7, human, point mutant of the full-length His6 construct (QuikChange); also called ND; source: bacterially expressed and purified; not shown: His6, C-terminal, kept
T4 sequence (Q8TDX7 whole entry N33D): as the sequence (Q8TDX7 whole entry) above, with N33D counted along it

[5] = molecular target: T5, Nek7-Y28A/L31A (human, UniProt Q8TDX7 1-302, Y28A | L31A)
T5 construct: Nek7, human, double point mutant of the full-length His6 construct (QuikChange); also called YA/LA; source: bacterially expressed and purified; not shown: His6, C-terminal, kept
T5 sequence (Q8TDX7 whole entry Y28A/L31A): as the sequence (Q8TDX7 whole entry) above, with Y28A, L31A counted along it

Measured: binding result

B1: GST-tagged C-terminal domain of human Nek9 (amino acids 706-960) (domain or fragment, UniProt Q8TD19 706-960, looked up)
chain: SLHHVPDLSCRGWHTILIVEKVLNSKTIRSNSSGLSIGTVFQSSSPGGGGGGGGGEEEDSQQESETPDPSGGFRGTMEADRGMEGLISPTEAMGNSNGASSSCPGWLRKELENAEFIPMPDSPSPLSAAFSESEKDTLPYEELQGLKVASEAPLEHKPQVEASSPRLNPAVTCAGKGTPLTPPACACSSLQVEVERLQGLVLKCLAEQQKLQQENLQIFTQLQKLNKKLEGGQQVGMHSKGTQTAKEEMEMDPKP
notes: Nek9, human, noncatalytic C-terminal domain (CTD), amino acids 706-960, cloned into pGEX-4T1; pGEX-4T1 normally places GST at the N-terminus; also called Nek9-CTD; GST-Nek9-CTD; source: E. coli Rosetta DE3, purified (glutathione Sepharose)
binds: [1] | [2] | [3] | [4] | [5]
